Broadly, the stoichiometry N is a count of units in the complex or per binding partner. A word on the Kd: it is the equilibrium constant for the complex coming apart. High values mean a looser complex, low ones a tighter complex.

Consider five molecules from article PMC4729829, “BAP1/ASXL1 recruitment and activation for H2A deubiquitination” (Nature Communications, 2016).

Experiment [1] has as its target T1, full-length BAP1 (BRCA-1-associated protein 1) (human), Q92560.
T1 chain: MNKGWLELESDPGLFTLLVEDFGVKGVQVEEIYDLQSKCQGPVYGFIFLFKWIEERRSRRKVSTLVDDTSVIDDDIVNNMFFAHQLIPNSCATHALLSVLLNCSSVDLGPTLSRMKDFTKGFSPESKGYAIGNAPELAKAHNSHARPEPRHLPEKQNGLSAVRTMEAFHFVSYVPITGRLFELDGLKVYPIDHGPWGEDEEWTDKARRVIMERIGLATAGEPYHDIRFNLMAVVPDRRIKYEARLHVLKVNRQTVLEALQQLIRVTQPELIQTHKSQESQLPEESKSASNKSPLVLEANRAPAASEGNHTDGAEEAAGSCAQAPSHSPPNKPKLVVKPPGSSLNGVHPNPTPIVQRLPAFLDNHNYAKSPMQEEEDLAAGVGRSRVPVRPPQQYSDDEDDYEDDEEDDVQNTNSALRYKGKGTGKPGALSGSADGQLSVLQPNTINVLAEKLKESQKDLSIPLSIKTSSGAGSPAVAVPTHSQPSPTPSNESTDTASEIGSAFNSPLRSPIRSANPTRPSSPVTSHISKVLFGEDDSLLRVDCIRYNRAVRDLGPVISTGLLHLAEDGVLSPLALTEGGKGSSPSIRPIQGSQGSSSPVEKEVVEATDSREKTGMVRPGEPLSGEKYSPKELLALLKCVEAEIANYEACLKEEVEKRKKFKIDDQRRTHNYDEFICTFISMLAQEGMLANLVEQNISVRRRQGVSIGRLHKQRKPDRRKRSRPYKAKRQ
Kind of experiment: SEC-MALS; miniDawn detector in line with Superdex S75 10/30 (ASXL1DEU), Superose 6 10/30 (BAP1) or Superdex S200 10/30 (BAP1/ASXL1DEU); 10 mM HEPES pH 7.5, 150 mM NaCl, 0.5 mM TCEP, 4 °C; molecular weights from the refractive index signal. Conditions: remark: other sources report otherwise. A general note: SEC sorts molecules by how far they enter the pores of the column.

Experiment [2] has as its target T2, full-length BAP1 (BRCA-1-associated protein 1) (human, UniProt Q92560 1-729).
T2 construct: BAP1, uniprot Q92560, full length; Vector pFastBac-NKI-his-3C-LIC; no removal of the tag is described; also called FL BAP1; WT BAP1; source: Sf9 cells, purified (Ni2+ chelating sepharose, Poros HQ anion exchange, Superose 6 SEC)
T2 sequence (looked up): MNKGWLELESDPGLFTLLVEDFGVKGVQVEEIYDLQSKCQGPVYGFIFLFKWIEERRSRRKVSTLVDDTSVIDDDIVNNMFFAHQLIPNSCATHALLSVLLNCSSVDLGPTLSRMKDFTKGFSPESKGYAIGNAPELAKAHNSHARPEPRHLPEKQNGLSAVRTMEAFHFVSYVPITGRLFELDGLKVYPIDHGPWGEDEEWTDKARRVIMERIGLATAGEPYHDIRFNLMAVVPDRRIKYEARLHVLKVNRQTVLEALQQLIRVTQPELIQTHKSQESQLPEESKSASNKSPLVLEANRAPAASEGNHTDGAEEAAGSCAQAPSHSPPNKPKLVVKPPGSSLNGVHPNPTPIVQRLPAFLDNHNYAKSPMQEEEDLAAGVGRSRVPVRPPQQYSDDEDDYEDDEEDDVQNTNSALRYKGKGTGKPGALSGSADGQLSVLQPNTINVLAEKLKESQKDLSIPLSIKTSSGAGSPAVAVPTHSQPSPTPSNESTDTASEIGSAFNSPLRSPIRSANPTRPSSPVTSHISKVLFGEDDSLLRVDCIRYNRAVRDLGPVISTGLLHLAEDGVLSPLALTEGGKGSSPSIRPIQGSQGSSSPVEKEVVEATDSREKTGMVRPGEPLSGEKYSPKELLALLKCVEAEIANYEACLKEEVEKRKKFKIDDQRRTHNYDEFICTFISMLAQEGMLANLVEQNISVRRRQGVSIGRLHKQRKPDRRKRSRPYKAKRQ
Put plainly: ITC; VP-ITC at 25 °C; 25 mM HEPES pH 7.5, 150 mM NaCl, 10% glycerol, 0.5 mM TCEP; 30 μM ASXL1DEU (syringe) titrated into 13 μM BAP1 variant (cell), 10 or 5 μl injections; one-site binding model. Conditions: both partners purified.

The target of experiment [3] is T3, BAP1 1-710 (lacks the C-terminal extension) (human, UniProt Q92560 1-710).
T3 construct: BAP1, uniprot Q92560, residues 1-710; Vector pFastBac-NKI-his-3C-LIC; source: Sf9 cells, purified (Ni2+ chelating sepharose, Poros HQ anion exchange, Superose 6 SEC)
T3 sequence (looked up): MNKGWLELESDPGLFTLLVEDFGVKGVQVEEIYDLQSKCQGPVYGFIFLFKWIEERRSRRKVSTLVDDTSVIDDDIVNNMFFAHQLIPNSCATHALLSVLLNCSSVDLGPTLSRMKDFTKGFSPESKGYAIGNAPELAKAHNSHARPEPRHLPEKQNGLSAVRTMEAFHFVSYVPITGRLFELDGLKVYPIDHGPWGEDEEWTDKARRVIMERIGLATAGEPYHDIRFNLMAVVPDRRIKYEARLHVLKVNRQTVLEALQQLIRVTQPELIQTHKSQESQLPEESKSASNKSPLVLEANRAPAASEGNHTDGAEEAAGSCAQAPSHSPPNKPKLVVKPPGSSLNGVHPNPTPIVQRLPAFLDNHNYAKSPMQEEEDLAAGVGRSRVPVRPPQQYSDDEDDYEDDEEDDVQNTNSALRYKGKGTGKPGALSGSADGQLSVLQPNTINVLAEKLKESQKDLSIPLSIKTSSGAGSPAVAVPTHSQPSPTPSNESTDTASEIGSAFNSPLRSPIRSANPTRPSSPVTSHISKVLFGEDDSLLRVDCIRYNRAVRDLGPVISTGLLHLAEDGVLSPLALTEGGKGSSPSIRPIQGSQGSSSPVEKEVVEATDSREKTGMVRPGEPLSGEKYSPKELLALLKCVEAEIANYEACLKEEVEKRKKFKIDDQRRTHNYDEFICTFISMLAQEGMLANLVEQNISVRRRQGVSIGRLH
Described as above. The conditions noted are these: both partners purified.

Experiment [4] addresses T4, BRCA-1-associated protein 1 (BAP1), full length, wild type (human, UniProt Q92560 1-729).
T4 construct: BAP1 (BRCA-1-associated protein 1), human, UniProt Q92560, full length; Cloned into pFastBac-NKI-his-3C-LIC; In isolation it forms dimers and higher order oligomers (SEC-MALLS); also called WT BAP1; full-length BAP1; source: Sf9 cells, purified (Ni2+ chelating sepharose, Poros HQ anion exchange, Superose 6 SEC)
T4 sequence (looked up): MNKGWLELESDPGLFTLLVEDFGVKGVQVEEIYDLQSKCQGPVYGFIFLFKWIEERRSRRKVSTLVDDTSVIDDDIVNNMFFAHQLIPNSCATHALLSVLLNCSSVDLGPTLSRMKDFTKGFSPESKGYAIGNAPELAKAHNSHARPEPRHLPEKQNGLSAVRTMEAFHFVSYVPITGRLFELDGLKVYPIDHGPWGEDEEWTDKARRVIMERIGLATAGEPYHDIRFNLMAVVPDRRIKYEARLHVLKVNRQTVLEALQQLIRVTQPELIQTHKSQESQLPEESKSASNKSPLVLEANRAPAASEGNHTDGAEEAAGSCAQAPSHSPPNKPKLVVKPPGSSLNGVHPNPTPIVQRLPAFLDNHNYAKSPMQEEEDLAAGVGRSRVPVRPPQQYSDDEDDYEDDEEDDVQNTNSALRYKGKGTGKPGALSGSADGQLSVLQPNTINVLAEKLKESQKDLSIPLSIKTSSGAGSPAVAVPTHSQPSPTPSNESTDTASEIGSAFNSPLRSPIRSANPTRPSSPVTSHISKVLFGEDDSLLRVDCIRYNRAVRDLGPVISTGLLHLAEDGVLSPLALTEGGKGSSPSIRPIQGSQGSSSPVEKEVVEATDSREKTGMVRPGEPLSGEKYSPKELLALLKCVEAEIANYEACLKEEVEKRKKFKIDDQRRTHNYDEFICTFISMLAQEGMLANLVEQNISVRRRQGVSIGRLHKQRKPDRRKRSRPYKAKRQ
Put plainly: SEC-MALS; SEC-MALLS, miniDawn detector; Superdex S75 10/30 (ASXL1^DEU), Superose 6 10/30 (BAP1) or Superdex S200 10/30 (BAP1/ASXL1^DEU); 10 mM HEPES pH 7.5, 150 mM NaCl, 0.5 mM TCEP; 4 °C. The conditions noted are these: both partners purified.

For experiment [5], the target named is T4, BRCA-1-associated protein 1 (BAP1), …. Kind of experiment: ITC; 30 μM ASXL1^DEU in the syringe titrated (10 or 5 μl injections) into 13 μM BAP1 variant in the cell; 25 °C; 25 mM HEPES pH 7.5, 150 mM NaCl, 10% glycerol, 0.5 mM TCEP; one-site binding model. The conditions noted are these: both partners purified. In general terms: ITC needs no label: the signal is the heat of the interaction.

B1: full-length BAP1 (BRCA-1-associated protein 1), Q92560 1-729 (enzyme)
chain: MNKGWLELESDPGLFTLLVEDFGVKGVQVEEIYDLQSKCQGPVYGFIFLFKWIEERRSRRKVSTLVDDTSVIDDDIVNNMFFAHQLIPNSCATHALLSVLLNCSSVDLGPTLSRMKDFTKGFSPESKGYAIGNAPELAKAHNSHARPEPRHLPEKQNGLSAVRTMEAFHFVSYVPITGRLFELDGLKVYPIDHGPWGEDEEWTDKARRVIMERIGLATAGEPYHDIRFNLMAVVPDRRIKYEARLHVLKVNRQTVLEALQQLIRVTQPELIQTHKSQESQLPEESKSASNKSPLVLEANRAPAASEGNHTDGAEEAAGSCAQAPSHSPPNKPKLVVKPPGSSLNGVHPNPTPIVQRLPAFLDNHNYAKSPMQEEEDLAAGVGRSRVPVRPPQQYSDDEDDYEDDEEDDVQNTNSALRYKGKGTGKPGALSGSADGQLSVLQPNTINVLAEKLKESQKDLSIPLSIKTSSGAGSPAVAVPTHSQPSPTPSNESTDTASEIGSAFNSPLRSPIRSANPTRPSSPVTSHISKVLFGEDDSLLRVDCIRYNRAVRDLGPVISTGLLHLAEDGVLSPLALTEGGKGSSPSIRPIQGSQGSSSPVEKEVVEATDSREKTGMVRPGEPLSGEKYSPKELLALLKCVEAEIANYEACLKEEVEKRKKFKIDDQRRTHNYDEFICTFISMLAQEGMLANLVEQNISVRRRQGVSIGRLHKQRKPDRRKRSRPYKAKRQ
In turn, B1 displayed a stoichiometry N in experiment [1] of 2.

B2: ASXL1 DEUBAD domain (aa 238-390) (domain or fragment, human, UniProt Q8IXJ9 238-390, looked up)
chain: ATGQMKRNRGEEIDFETPGSILVNTNLRALINSRTFHALPSHFQQQLLFLLPEVDRQVGTDGLLRLSSSALNNEFFTHAAQSWRERLADGEFTHEMQVRIRQEMEKEKKVEQWKEKFFEDYYGQKLGLTKEESLQQNVGQEEAEIKSGLCVPG
notes: ASXL1, uniprot Q8IXJ9, DEUBAD domain, residues 238-390; Vector pET-NKI-his-3C-LIC; also called His-ASXL1DEU; source: E. coli, purified (Ni2+ chelating sepharose, Poros HQ anion exchange, Superdex 75 SEC)
As for B2, the “stoichiometry N” value in experiment [2] was 0.37 ± 0.002. Further, in experiment [3], the Kd came to 5 ± 0.16 nM and the “stoichiometry N” value is 0.27 ± 0.001.

B3: ASXL1 DEUBAD domain (aa 238-390) (domain or fragment, human, UniProt Q8IXJ9 238-390, looked up)
chain: ATGQMKRNRGEEIDFETPGSILVNTNLRALINSRTFHALPSHFQQQLLFLLPEVDRQVGTDGLLRLSSSALNNEFFTHAAQSWRERLADGEFTHEMQVRIRQEMEKEKKVEQWKEKFFEDYYGQKLGLTKEESLQQNVGQEEAEIKSGLCVPG
notes: ASXL1 (additional sexcombs like 1), human, UniProt Q8IXJ9, DEUBAD domain, aa 238-390; Cloned into pET-NKI-his-3C-LIC; printed as His-ASXL1^DEU; Monomeric in SEC-MALLS; also called His-ASXL1^DEU; WT ASXL1^DEU; source: E. coli, purified (Ni2+ chelating sepharose, Poros HQ anion exchange, Superdex 75 SEC)
Take B3: the “stoichiometry N” value in experiment [4] is 2 BAP1 molecules per ASXL1^DEU molecule. Besides, in experiment [5], the affinity, expressed as Kd, was 18 nM and the “stoichiometry N” value was in the range of 0.25 to 0.5.

B4: ASXL1 DEUBAD domain (aa 238-390) N310A/E311K/F312A (domain or fragment, human, UniProt Q8IXJ9 238-390, looked up)
chain: ATGQMKRNRGEEIDFETPGSILVNTNLRALINSRTFHALPSHFQQQLLFLLPEVDRQVGTDGLLRLSSSALNAKAFTHAAQSWRERLADGEFTHEMQVRIRQEMEKEKKVEQWKEKFFEDYYGQKLGLTKEESLQQNVGQEEAEIKSGLCVPG
notes: ASXL1, uniprot Q8IXJ9, DEUBAD domain, residues 238-390, triple mutant of the NEF region; Variant of Dm4; also called ASXL1NEF DEU; NEF; source: E. coli, purified (Ni2+ chelating sepharose, Poros HQ anion exchange, Superdex 75 SEC)
Regarding B4, in experiment [2], the Kd is 46 ± 0.14 nM and the “stoichiometry N” value was determined as 0.32 ± 0.003.

B5: ASXL1 DEUBAD domain triple mutant N310A/E311K/F312A (domain or fragment, human, UniProt Q8IXJ9 238-390, looked up)
chain: ATGQMKRNRGEEIDFETPGSILVNTNLRALINSRTFHALPSHFQQQLLFLLPEVDRQVGTDGLLRLSSSALNAKAFTHAAQSWRERLADGEFTHEMQVRIRQEMEKEKKVEQWKEKFFEDYYGQKLGLTKEESLQQNVGQEEAEIKSGLCVPG
notes: ASXL1, human, UniProt Q8IXJ9, DEUBAD domain, aa 238-390, with N310A, E311K and F312A; Variant of m2; also called ASXL1NEF^DEU; NEF; source: E. coli, purified (Ni2+ chelating sepharose, Poros HQ anion exchange, Superdex 75 SEC)
With B5, the Kd in experiment [5] amounted to 45 nM.
